{
  "source": "patent US20160237160A1",
  "about": "(Bayer, published 2016)",
  "binders": {"B1": {"name": "TPP-2090 (antibody, human IgG1, kappa, V domains shown)", "VH": "EVQLLESGGGLVQPGGSLRLSCAASGFTFSPYPMIWVRQAPGKGLEWVSYISPSGGSTHYADSVKGRFTISRDNSKNTLYLQMNSLRAEDTAVYYCARGGDTYFDYFDYWGQGTLVTVSS", "VL": "DIQMTQSPSSLSASVGDRVTITCRASQSISGYLNWYQQKPGKAPKLLIYQASSLQSGVPSRFSGSGSGTDFTLTISSLQPEDFATYYCQQSYTSPFITFGQGTKVEIKR", "notes": "Human IgG1"}, "B2": {"name": "P4A8(TPP-1324) (antibody, human IgG1, kappa, V domains shown)", "VH": "QVQLVQSGAEVKKPGASVKVSCKGSGYTFTDYGMHWVRQAPGQGLEWMGVISTYNGYTNYNQKFKGRVTMTVDKSTSTAYMELRSLRSDDTAVYYCARAYYGNLYYAMDYWGQGTLVTVSS", "VL": "DIVLTQSPASLAVSLGQRATISCRASKSVSTSSYSYMHWYQQKPGQPPKLLIKYASNLESGVPARFSGSGSGTDFSLNIHPMEEDDTAMYFCQHSRELPFTFGGGTKLEIKR", "notes": "Human IgG1; variable domains from WO2009/140177 with constant region added"}},
  "key": {"[1]": {"target": "T1, TPP-1779 (RAT-TNFRSF12Aaa28-80-hIgG1-Fc) (rat)", "T1 construct": "bivalent antigen; also called rat TWEAKR Fc", "assay": "SPR, TWEAKR-Fc immobilized, IgG injected, bivalent analyte model (avidity mode);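 further: kd derived as the ratio of fitted dissociation to association rate constants, with sensorgrams corrected against a reference flow cell and a buffer blank before fitting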", "procedure": "Sensorgrams were generated after in-line reference cell correction followed by buffer sample subtraction. The dissociation equilibrium constant (KD) was calculated based on the ratio of association (kₒₙ₁) and dissociation rated (koff1) constants, obtained by fitting sensorgrams with a bivalent analyte model using Biavaluation Software (version 4.0)."}, "[2]": {"target": "T2, TPP-2614 (TweakR-ECD-34-68-hIgGFc-His-D47A) (human)", "T2 construct": "also called D47A TWEAKR mutein", "assay": "ELISA, antibody coated at 1 µg/ml, TWEAKR variant at 250 ng/ml, anti-HIS HRP; normalized by WT; the legend of B does not name the variant, D47A by paragraph 82 and paragraph 368", "procedure": "(§1) Antibodies were coated (1 μg/ml), TWEAKR variant was added at 250 ng/ml, detection via anti-HIS HRP. […] Antibodies were coated (1 μg/ml), TWEAKR variant was added 250 ng/ml, detection via anti-HIS HRP."}, "[3]": {"target": "T3, TPP-1984 (hTNFRSF12Aaa28-68-CT-His) (human)", "T3 construct": "monomeric ectodomain with HIS6 tag; also called TWEAKR(28-68)-HIS; C-terminally truncated TWEAKR ectodomain", "T3 chain": "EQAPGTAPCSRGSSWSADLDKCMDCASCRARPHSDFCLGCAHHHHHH", "assay": "ELISA, TPP-1984 coated at 1 µg/ml, biotinylated IgG at 0.08 µg/ml (open bar) and 0.3 µg/ml (filled bar), Streptavidin-HRP, Amplex Red", "procedure": "(§2) Detection was done with Streptavidin-HRP and Amplex-Red substrate.\n(§3) To analyze for binding, 1 μg/ml of the respective dimeric TWEAKR-Fc construct were coated and, 0.3 μg/ml and 0.08 μg/ml of biotinylated IgG were used as soluble binding partner. Detection was done with Streptavidin-HRP and Amplex-Red substrate."}, "[4]": {"target": "T4, TPP-2203 (TWEAKR-ECD-34-68-hIgGFc-His) (human)", "T4 construct": "dimeric; also called TWEAKR(34-68)-Fc fusion protein; truncated ectodomain 34-68", "assay": "ELISA, TPP-2203 coated at 1 µg/ml, biotinylated IgG at 0.08 µg/ml (open bar) and 0.3 µg/ml (filled bar), Streptavidin-HRP, Amplex Red", "procedure": "as §2, §3"}, "[5]": {"target": "T2, TPP-2614 …", "assay": "ELISA, IgG coated 1 ug/ml, TWEAKR variant 250 ng/ml, anti-HIS HRP (FIG. 6C)", "procedure": "as §1"}, "[6]": {"target": "T5, TPP-2608 (TweakR-ECD-34-68-hIgGFc-His-R38A) (human)", "T5 construct": "used as HEK293 supernatant", "assay": "ELISA, IgG coated 1 ug/ml, HEK293 supernatant titrated", "procedure": "(§4) These TWEAKR(34-68)-Fc muteins were expressed in HEK293 cells. To collect dose-response data, IgGs were coated at a concentration of 1 μg/ml in a 384-well Maxisorp ELISA plate and a serial 2fold dilution of the TWEAKR mutein containing supernatant was used as soluble binding partner. Detection was done with anti-HIS-HRP and Amplex Red."}, "[7]": {"target": "T6, TPP-2619 (TweakR-ECD-34-68-hIgGFc-His-R58A) (human)", "T6 construct": "used as HEK293 supernatant", "assay": "ELISA, IgG coated 1 ug/ml, HEK293 supernatant titrated", "procedure": "as §4"}, "[8]": {"target": "T7, TPP-2622 (TweakR-ECD-34-68-hIgGFc-His-S61A) (human)", "T7 construct": "used as HEK293 supernatant", "assay": "ELISA, IgG coated 1 ug/ml, HEK293 supernatant titrated", "procedure": "as §4"}, "[9]": {"target": "T8, TPP-2624 (TweakR-ECD-34-68-hIgGFc-His-F63A) (human)", "T8 construct": "used as HEK293 supernatant", "assay": "ELISA, IgG coated 1 ug/ml, HEK293 supernatant titrated", "procedure": "as §4"}, "[10]": {"target": "T9, TPP-2609 (TweakR-ECD-34-68-hIgGFc-His-S40A) (human)", "T9 construct": "used as HEK293 supernatant", "assay": "ELISA, IgG coated 1 ug/ml, HEK293 supernatant titrated", "procedure": "as §4"}, "[11]": {"target": "T10, TPP-2612 (TweakR-ECD-34-68-hIgGFc-His-S43A) (human)", "T10 construct": "used as HEK293 supernatant", "assay": "ELISA, IgG coated 1 ug/ml, HEK293 supernatant titrated", "procedure": "as §4"}, "[12]": {"target": "T11, TPP-2615 (TweakR-ECD-34-68-hIgGFc-His-K48A) (human)", "T11 construct": "used as HEK293 supernatant", "assay": "ELISA, IgG coated 1 ug/ml, HEK293 supernatant titrated", "procedure": "as §4"}, "[13]": {"target": "T12, TPP-2621 (TweakR-ECD-34-68-hIgGFc-His-H60A) (human)", "T12 construct": "used as HEK293 supernatant", "assay": "ELISA, IgG coated 1 ug/ml, HEK293 supernatant titrated", "procedure": "as §4"}, "[14]": {"target": "T13, TPP-2617 (TweakR-ECD-34-68-hIgGFc-His-S54A) (human)", "T13 construct": "used as HEK293 supernatant", "assay": "ELISA, IgG coated 1 ug/ml, HEK293 supernatant titrated", "procedure": "as §4"}, "[15]": {"target": "T14, TPP-2613 (TweakR-ECD-34-68-hIgGFc-His-D45A) (human)", "T14 construct": "used as HEK293 supernatant", "assay": "ELISA, IgG coated 1 ug/ml, HEK293 supernatant titrated", "procedure": "as §4"}, "[16]": {"target": "T15, TPP-2611 (TweakR-ECD-34-68-hIgGFc-His-W42A) (human)", "T15 construct": "used as HEK293 supernatant; also called W42A (34-68 construct)", "assay": "ELISA, IgG coated 1 ug/ml, HEK293 supernatant titrated", "procedure": "as §4"}, "[17]": {"target": "TPP-2610 (TweakR-ECD-34-68-hIgGFc-His-S41A) (human)", "assay": "ELISA, IgG coated 1 ug/ml, HEK293 supernatant titrated", "procedure": "as §4"}, "[18]": {"target": "T16, TPP-2625 (TweakR-ECD-34-68-hIgGFc-His-L65A) (human)", "T16 construct": "used as HEK293 supernatant", "assay": "ELISA, IgG coated 1 ug/ml, HEK293 supernatant titrated", "procedure": "as §4"}, "[19]": {"target": "T17, TPP-2616 (TweakR-ECD-34-68-hIgGFc-His-D51A) (human)", "T17 construct": "used as HEK293 supernatant", "assay": "ELISA, IgG coated 1 ug/ml, HEK293 supernatant titrated", "procedure": "as §4"}, "[20]": {"target": "T18, TPP-2620 (TweakR-ECD-34-68-hIgGFc-His-P59A) (human)", "T18 construct": "used as HEK293 supernatant", "assay": "ELISA, IgG coated 1 ug/ml, HEK293 supernatant titrated", "procedure": "as §4"}, "[21]": {"target": "T19, TPP-2623 (TweakR-ECD-34-68-hIgGFc-His-D62A) (human)", "T19 construct": "used as HEK293 supernatant", "assay": "ELISA, IgG coated 1 ug/ml, HEK293 supernatant titrated", "procedure": "as §4"}, "[22]": {"target": "T20, TPP-2607 (TweakR-ECD-34-68-hIgGFc-His-S37A) (human)", "T20 construct": "used as HEK293 supernatant", "assay": "ELISA, IgG coated 1 ug/ml, HEK293 supernatant titrated", "procedure": "as §4"}, "[23]": {"target": "T21, TPP-2618 (TweakR-ECD-34-68-hIgGFc-His-R56A) (human)", "T21 construct": "used as HEK293 supernatant", "assay": "ELISA, IgG coated 1 ug/ml, HEK293 supernatant titrated", "procedure": "as §4"}, "[24]": {"target": "T22, TPP-599 (HUMAN-TNFRSF12Aaa28-80-hIgG1-Fc) (human)", "T22 construct": "dimeric; also called human TWEAKR Fc; TWEAKR-Fc", "assay": "ELISA, TWEAKR-Fc coated 62 ng/ml, biotin-IgG titrated; + means IC50 1 to 150 pM;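 further: biotinylated IgG binding to immobilized TWEAKR-Fc muteins, detected with Streptavidin-HRP and Amplex Red, IC50 derived from fitted dose-response curves of twofold serial dilutions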", "procedure": "To collect dose-response data, the different TWEAKR-Fc muteins were coated with a low concentration (62 ng/ml) in a 384-well Maxisorb ELISA plate and a serial 2fold dilution of biotinylated IgG starting with a concentration of 100 nM was used as soluble binding partner. Detection was done with Streptavidin-HRP and Amplex Red.\nThe dose-response data were fitted and IC50s determined."}, "[25]": {"target": "TWEAKR (TNFRSF12A, FN14), human, on tumor cell lines (human, UniProt Q9NP84 28-129)", "assay": "cell-based or functional assay"}},
  "data": [
    {"binder": "B1", "values": [
      {"measurement": "Kd", "setting": "[1]", "value": 4.3, "unit": "nM"},
      {"measurement": "binding result", "setting": "[2]", "value": "no binding (tested: 250 ng/ml (TWEAKR variant))"},
      {"measurement": "binding result", "setting": "[3]", "value": "binds"},
      {"measurement": "binding result", "setting": "[4]", "value": "binds"},
      {"measurement": "% binding normalized by wt binding signal", "setting": "[5]", "value": "< 5", "unit": "%"}
    ]},
    {"binder": "B2", "values": [
      {"measurement": "binding result", "setting": "[6]", "value": "no binding"},
      {"measurement": "binding result", "setting": "[7]", "value": "no binding"},
      {"measurement": "binding result", "setting": "[8]", "value": "no binding"},
      {"measurement": "binding result", "setting": "[9]", "value": "no binding"},
      {"measurement": "binding result", "setting": "[10]", "value": "no binding"},
      {"measurement": "binding result", "setting": "[11]", "value": "no binding"},
      {"measurement": "binding result", "setting": "[12]", "value": "no binding"},
      {"measurement": "binding result", "setting": "[13]", "value": "no binding"},
      {"measurement": "binding result", "setting": "[14]", "value": "no binding"},
      {"measurement": "binding result", "setting": "[15]", "value": "no binding"},
      {"measurement": "binding result", "setting": "[16]", "value": "no binding"},
      {"measurement": "binding result", "setting": "[17]", "value": "no binding"},
      {"measurement": "binding result", "setting": "[18]", "value": "no binding"},
      {"measurement": "binding result", "setting": "[19]", "value": "no binding"},
      {"measurement": "binding result", "setting": "[20]", "value": "no binding"},
      {"measurement": "binding result", "setting": "[21]", "value": "no binding"},
      {"measurement": "binding result", "setting": "[22]", "value": "no binding"},
      {"measurement": "binding result", "setting": "[23]", "value": "no binding"},
      {"measurement": "binding result", "setting": "[24]", "value": "binds"},
      {"measurement": "Fold induction of Caspase 3/7, 786-O cells, 100 ug/ml", "setting": "[25]", "value": 1.1, "unit": "fold"},
      {"measurement": "Fold induction of Caspase 3/7, A253 cells, 100 ug/ml", "setting": "[25]", "value": 1.38, "unit": "fold"},
      {"measurement": "Fold induction of Caspase 3/7, HT-29 cells, 100 ug/ml", "setting": "[25]", "value": 1.49, "unit": "fold"},
      {"measurement": "Fold induction of Caspase 3/7, NCI-H322 cells, 100 ug/ml", "setting": "[25]", "value": 1.02, "unit": "fold"},
      {"measurement": "Fold induction of Caspase 3/7, WiDr cells, 100 ug/ml", "setting": "[25]", "value": 1.12, "unit": "fold"}
    ]}
  ]
}
